Target: glycoprotein Ibα (GPIbα) on human platelets, P07359
Experiment: flow cytometry on cells
Details: chain shown with the change, human platelets incubated 20 min, washed once, FITC-conjugated goat anti-mouse IgG, MFI of 10,000 cells, read off a plot

B1: wild-type 5G6 Fab fragment (recombinant) H:T102A; H:T103A; H:T104A; H:T105A; L:D93A (protein)
chain 1: QVTLKESGPGILQPSQTLSLTCSFSGFSLSTSNMGVVWIRQPSGKGLEWLLHILWNDGKFYNPALKSRLTISKDTYNNQVFLKIANVDTADTATYYCARLFAAAASGYFDVWGAGTTVTVSS
chain 2: DIQMTQSPASLSASVGETVTITCRASGNIYNYLAWYQQKQGKSPQLLVYNAKTLADGVPSRFSGSGSGTQYSLKINSLQPEDFGSYFCQHFWATPWTFGGGTKLEIK
response ([mAb] about 37 nM (read from x axis), parent: est. 320): 8 a.u. | response ([mAb] about 110 nM (read from x axis), parent: est. 290): 10 a.u.

From paper PMC4840364
